In the test the target is xTCF1. The test can be described thus: co-IP; binding competition: HEK293T cells transfected with flag-TCF and β-cat1 or β-cat4 alone, together, or with β-cat2 as control; IP with FLAG-M2 beads; precipitated β-catenins quantified and normalised against total β-catenins in whole cell lysates.

On to Smed-β-catenin4 (natural protein), for which the relative binding to TCF, β-cat4 alone and β-cat1+β-cat4 co-transfected compared was 0.51; the relative binding to TCF, β-cat4 alone and β-cat4+β-cat2 co-transfected compared (negative control) is 0.91.

In the case of Smed-β-catenin1 (natural protein), the relative binding to TCF, β-cat1 alone and β-cat1+β-cat2 co-transfected compared (negative control) came to 1.11; the relative binding to TCF, β-cat1 alone and β-cat1+β-cat4 co-transfected compared turned out to be 0.63.

The values above are taken from paper PMC5643146.
